{"source": "patent US20030148417", "key": {"[1]": {"molecular_target": "bovine haemoglobin, P01966", "sequence (P01966 2-142, chain 1 of 2)": "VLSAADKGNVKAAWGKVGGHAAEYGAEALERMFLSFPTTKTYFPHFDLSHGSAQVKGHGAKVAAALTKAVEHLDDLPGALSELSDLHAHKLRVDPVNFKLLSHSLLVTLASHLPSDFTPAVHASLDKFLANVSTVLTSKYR", "sequence (chain, as listed by the source, chain 2 of 2)": "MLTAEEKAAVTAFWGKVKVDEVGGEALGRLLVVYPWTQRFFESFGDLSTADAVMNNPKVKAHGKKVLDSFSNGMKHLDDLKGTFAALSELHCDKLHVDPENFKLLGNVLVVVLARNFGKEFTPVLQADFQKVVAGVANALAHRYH"}}}
{"protein": "recombinant TcAP2 protein (aspartic endoproteinase from Theobroma cacao, secreted by Yarrowia lipolytica clone pCY330-33) (protein) VSNDGLVRIGLKKMKLDPNNRLAARLDSKDGEALRAFIKKYRFRNNLGDSEETDIVALKNYMDAQYYGEIGIGTPTQKFTVIFDTGSSNLWVSSTKCYFSVACYFHEKYKASDSSTYKKDGKPASIQYGTGAISGFFSYDHVQVGDLVVKDQEFIEATKEPGLTFMVAKFDGILGLGFKEISVGDAVPVWYNMIKQGLIKEPVFSFWLNRNVDEEAGGEIVFGGVDPNHYKGKHTYVPVTQKGYWQFDMGDVLIADKPTGYCAGSCAAIADSGTSLLAGPSTVITMINHAIGATGVVSQECKAVVQQYGRTIIDLLIAEAQPQKICSQIGLCTFNGAHGVSTGIESVVDESNGKSSGVLRDAMCPACEMAVVWMQNQVRQNQTQDRILSYVNELCDRVPNPMGESAVDCGSLSSMPTISFTIGGKVFDLTPEEYILKVGEGSEAQCISGFTALDIPPPRGPLWILGDIFMGRYHTVFDFGKLRVGFAEAAHHH", "values": [{"measurement": "endoprotease activity (hydrolysis of bovine haemoglobin)", "setting": "Pepstatin A", "result": "completely inhibited by 2 µM pepstatin"}, {"measurement": "pepstatin insensitive activity (hydrolysis of bovine haemoglobin, 2 µM pepstatin)", "setting": "Pepstatin A", "result": "1.91±1.26 pmoles L-leucine/min/mg protein, 6.65%"}, {"measurement": "hydrolysis of bovine haemoglobin (OPA assay, pH 3, 42 C)", "setting": "[1]", "result": "25.8±1.45 pmoles L-leucine/min/mg protein"}]}
